Test results taken from patent US20230116587A1.

Target: RBD of the recombinantly expressed S protein (novel coronavirus SARS-CoV-2) (UniProt P0DTC2)
Test: ELISA, RBD coated at 0.01 µg/ml, antibody 0.1 µg/ml, HRP anti-human IgG Fc

irrelevant control antibody
OD450 reading: 0.006 OD450
